Usually Kd stands for the concentration at which binding is half-saturated. Read a high Kd as lower affinity.

T1: EsCas13d, nuclease-dead (Eubacterium siraeum, UniProt B0MS50, R295A;H300A;R849A;H854A)
T1 sequence: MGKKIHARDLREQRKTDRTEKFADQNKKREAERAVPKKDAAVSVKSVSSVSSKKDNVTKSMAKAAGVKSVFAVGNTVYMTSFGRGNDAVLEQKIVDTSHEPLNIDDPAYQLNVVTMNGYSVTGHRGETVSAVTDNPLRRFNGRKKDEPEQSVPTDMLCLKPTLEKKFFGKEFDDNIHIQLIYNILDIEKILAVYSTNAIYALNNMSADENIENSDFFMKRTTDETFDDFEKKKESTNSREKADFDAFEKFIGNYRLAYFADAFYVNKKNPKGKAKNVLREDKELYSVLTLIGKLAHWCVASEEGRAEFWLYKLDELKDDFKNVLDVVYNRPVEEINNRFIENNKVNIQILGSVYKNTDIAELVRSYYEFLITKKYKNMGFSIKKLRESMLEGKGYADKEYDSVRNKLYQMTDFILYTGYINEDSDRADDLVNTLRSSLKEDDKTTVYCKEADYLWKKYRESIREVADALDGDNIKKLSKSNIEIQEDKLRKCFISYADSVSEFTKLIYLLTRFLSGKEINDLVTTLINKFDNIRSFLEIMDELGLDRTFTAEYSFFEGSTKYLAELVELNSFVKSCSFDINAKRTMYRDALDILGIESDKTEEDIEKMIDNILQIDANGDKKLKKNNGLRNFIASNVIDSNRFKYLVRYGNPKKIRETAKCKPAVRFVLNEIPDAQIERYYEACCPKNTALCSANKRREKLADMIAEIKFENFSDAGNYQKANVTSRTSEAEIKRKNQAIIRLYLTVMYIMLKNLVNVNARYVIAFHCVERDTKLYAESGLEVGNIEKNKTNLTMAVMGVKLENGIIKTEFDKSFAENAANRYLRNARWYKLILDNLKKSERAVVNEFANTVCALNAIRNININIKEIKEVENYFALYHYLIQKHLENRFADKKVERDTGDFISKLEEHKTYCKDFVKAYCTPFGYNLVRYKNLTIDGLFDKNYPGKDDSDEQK

B1: target 2 MT 5'PFS ACU 3'PFS CGC (mixed)
RNA 1: CACCCGUGCAAAAUUGCAGGGGUCUAAAACCUUCUCCAAAUUGUUUCAUCCU
RNA 2: GGGAAUGGAUCCACAUCUACGAAUUCACUAGGAUGAAACAAUUUGGAGAAGCGCAGAUCGGAAGAGCACACGU
B2: target 2 MT 5'PFS UCU 3'PFS AGA (mixed)
RNA 1: CACCCGUGCAAAAUUGCAGGGGUCUAAAACCUUCUCCAAAUUGUUUCAUCCU
RNA 2: GGGAAUGGAUCCACAUCUACGAAUUCUCUAGGAUGAAACAAUUUGGAGAAGAGAAGAUCGGAAGAGCACACGU
B3: target 2 MT 5'PFS GGA 3'PFS CUU (mixed)
RNA 1: CACCCGUGCAAAAUUGCAGGGGUCUAAAACCUUCUCCAAAUUGUUUCAUCCU
RNA 2: GGGAAUGGAUCCACAUCUACGAAUUCGGAAGGAUGAAACAAUUUGGAGAAGCUUAGAUCGGAAGAGCACACGU
B4: target 2 MT 5'PFS GCC 3'PFS CGC (mixed)
RNA 1: CACCCGUGCAAAAUUGCAGGGGUCUAAAACCUUCUCCAAAUUGUUUCAUCCU
RNA 2: GGGAAUGGAUCCACAUCUACGAAUUCGCCAGGAUGAAACAAUUUGGAGAAGCGCAGAUCGGAAGAGCACACGU
B5: target 2 MT 5'PFS GGA 3'PFS CUG (mixed)
RNA 1: CACCCGUGCAAAAUUGCAGGGGUCUAAAACCUUCUCCAAAUUGUUUCAUCCU
RNA 2: GGGAAUGGAUCCACAUCUACGAAUUCGGAAGGAUGAAACAAUUUGGAGAAGCUGAGAUCGGAAGAGCACACGU
B6: target 2 MT 5'PFS AGG 3'PFS CGC (mixed)
RNA 1: CACCCGUGCAAAAUUGCAGGGGUCUAAAACCUUCUCCAAAUUGUUUCAUCCU
RNA 2: GGGAAUGGAUCCACAUCUACGAAUUCAGGAGGAUGAAACAAUUUGGAGAAGCGCAGAUCGGAAGAGCACACGU
B7: target 2 MT 5'PFS AAA 3'PFS CUU (mixed)
RNA 1: CACCCGUGCAAAAUUGCAGGGGUCUAAAACCUUCUCCAAAUUGUUUCAUCCU
RNA 2: GGGAAUGGAUCCACAUCUACGAAUUCAAAAGGAUGAAACAAUUUGGAGAAGCUUAGAUCGGAAGAGCACACGU
B8: target 2 MT 5'PFS GGA 3'PFS CUC (mixed)
RNA 1: CACCCGUGCAAAAUUGCAGGGGUCUAAAACCUUCUCCAAAUUGUUUCAUCCU
RNA 2: GGGAAUGGAUCCACAUCUACGAAUUCGGAAGGAUGAAACAAUUUGGAGAAGCUCAGAUCGGAAGAGCACACGU
B9: target 2 MT 5'PFS GCC 3'PFS AGC (mixed)
RNA 1: CACCCGUGCAAAAUUGCAGGGGUCUAAAACCUUCUCCAAAUUGUUUCAUCCU
RNA 2: GGGAAUGGAUCCACAUCUACGAAUUCGCCAGGAUGAAACAAUUUGGAGAAGAGCAGAUCGGAAGAGCACACGU
B10: target 2 MT 5'PFS GCC 3'PFS AGG (mixed)
RNA 1: CACCCGUGCAAAAUUGCAGGGGUCUAAAACCUUCUCCAAAUUGUUUCAUCCU
RNA 2: GGGAAUGGAUCCACAUCUACGAAUUCGCCAGGAUGAAACAAUUUGGAGAAGAGGAGAUCGGAAGAGCACACGU
B11: target 2 MT 5'PFS AAU 3'PFS UUA (mixed)
RNA 1: CACCCGUGCAAAAUUGCAGGGGUCUAAAACCUUCUCCAAAUUGUUUCAUCCU
RNA 2: GGGAAUGGAUCCACAUCUACGAAUUCAAUAGGAUGAAACAAUUUGGAGAAGUUAAGAUCGGAAGAGCACACGU
B12: target 2 MT 5'PFS AUG 3'PFS UCU (mixed)
RNA 1: CACCCGUGCAAAAUUGCAGGGGUCUAAAACCUUCUCCAAAUUGUUUCAUCCU
RNA 2: GGGAAUGGAUCCACAUCUACGAAUUCAUGAGGAUGAAACAAUUUGGAGAAGUCUAGAUCGGAAGAGCACACGU
B13: target 2 MT 5'PFS GCC 3'PFS CGG (mixed)
RNA 1: CACCCGUGCAAAAUUGCAGGGGUCUAAAACCUUCUCCAAAUUGUUUCAUCCU
RNA 2: GGGAAUGGAUCCACAUCUACGAAUUCGCCAGGAUGAAACAAUUUGGAGAAGCGGAGAUCGGAAGAGCACACGU
B14: target 2 MT 5'PFS ACU 3'PFS CGA (mixed)
RNA 1: CACCCGUGCAAAAUUGCAGGGGUCUAAAACCUUCUCCAAAUUGUUUCAUCCU
RNA 2: GGGAAUGGAUCCACAUCUACGAAUUCACUAGGAUGAAACAAUUUGGAGAAGCGAAGAUCGGAAGAGCACACGU
B15: target 2 MT 5'PFS GCC 3'PFS CGA (mixed)
RNA 1: CACCCGUGCAAAAUUGCAGGGGUCUAAAACCUUCUCCAAAUUGUUUCAUCCU
RNA 2: GGGAAUGGAUCCACAUCUACGAAUUCGCCAGGAUGAAACAAUUUGGAGAAGCGAAGAUCGGAAGAGCACACGU
B16: target 2 MT 5'PFS AUG 3'PFS UCC (mixed)
RNA 1: CACCCGUGCAAAAUUGCAGGGGUCUAAAACCUUCUCCAAAUUGUUUCAUCCU
RNA 2: GGGAAUGGAUCCACAUCUACGAAUUCAUGAGGAUGAAACAAUUUGGAGAAGUCCAGAUCGGAAGAGCACACGU
B17: target 2 MT 5'PFS GCC 3'PFS AGA (mixed)
RNA 1: CACCCGUGCAAAAUUGCAGGGGUCUAAAACCUUCUCCAAAUUGUUUCAUCCU
RNA 2: GGGAAUGGAUCCACAUCUACGAAUUCGCCAGGAUGAAACAAUUUGGAGAAGAGAAGAUCGGAAGAGCACACGU
B18: target 2 MT 5'PFS CCC 3'PFS CCU (mixed)
RNA 1: CACCCGUGCAAAAUUGCAGGGGUCUAAAACCUUCUCCAAAUUGUUUCAUCCU
RNA 2: GGGAAUGGAUCCACAUCUACGAAUUCCCCAGGAUGAAACAAUUUGGAGAAGCCUAGAUCGGAAGAGCACACGU
B19: target 2 MT 5'PFS AUG 3'PFS UCA (mixed)
RNA 1: CACCCGUGCAAAAUUGCAGGGGUCUAAAACCUUCUCCAAAUUGUUUCAUCCU
RNA 2: GGGAAUGGAUCCACAUCUACGAAUUCAUGAGGAUGAAACAAUUUGGAGAAGUCAAGAUCGGAAGAGCACACGU
B20: target 2 MT 5'PFS AAA 3'PFS CUC (mixed)
RNA 1: CACCCGUGCAAAAUUGCAGGGGUCUAAAACCUUCUCCAAAUUGUUUCAUCCU
RNA 2: GGGAAUGGAUCCACAUCUACGAAUUCAAAAGGAUGAAACAAUUUGGAGAAGCUCAGAUCGGAAGAGCACACGU
B21: target 2 MT 5'PFS AAU 3'PFS UUU (mixed)
RNA 1: CACCCGUGCAAAAUUGCAGGGGUCUAAAACCUUCUCCAAAUUGUUUCAUCCU
RNA 2: GGGAAUGGAUCCACAUCUACGAAUUCAAUAGGAUGAAACAAUUUGGAGAAGUUUAGAUCGGAAGAGCACACGU
B22: target 2 MT 5'PFS GUA 3'PFS AAC (mixed)
RNA 1: CACCCGUGCAAAAUUGCAGGGGUCUAAAACCUUCUCCAAAUUGUUUCAUCCU
RNA 2: GGGAAUGGAUCCACAUCUACGAAUUCGUAAGGAUGAAACAAUUUGGAGAAGAACAGAUCGGAAGAGCACACGU
B23: target 2 MT 5'PFS GGA 3'PFS CUA (mixed)
RNA 1: CACCCGUGCAAAAUUGCAGGGGUCUAAAACCUUCUCCAAAUUGUUUCAUCCU
RNA 2: GGGAAUGGAUCCACAUCUACGAAUUCGGAAGGAUGAAACAAUUUGGAGAAGCUAAGAUCGGAAGAGCACACGU
B24: target 2 MT 5'PFS AAU 3'PFS UUC (mixed)
RNA 1: CACCCGUGCAAAAUUGCAGGGGUCUAAAACCUUCUCCAAAUUGUUUCAUCCU
RNA 2: GGGAAUGGAUCCACAUCUACGAAUUCAAUAGGAUGAAACAAUUUGGAGAAGUUCAGAUCGGAAGAGCACACGU
B25: target 1 insG 3' of 18,insG 3' of 6 (mixed)
RNA 1: CACCCGUGCAAAAAUGCAGGGGUCUAAAACUGAGCGGAUAACCUCUCUAUGG
RNA 2: GGGAAUGGAUCCACAUCUACGAAUUCGUACCAUAGGAGAGGUUAUCCGGCUCACCGAGAUCGGAAGAGCACACGU
B26: target 1 A1G,G13A (mixed)
RNA 1: CACCCGUGCAAAAAUGCAGGGGUCUAAAACUGAGCGGAUAACCUCUCUAUGG
RNA 2: GGGAAUGGAUCCACAUCUACGAAUUCGUACCAUAGAGAAGUUAUCCGCUCGCCGAGAUCGGAAGAGCACACGU
B27: target 1 insC 3' of 3,insG 3' of 3 (mixed)
RNA 1: CACCCGUGCAAAAAUGCAGGGGUCUAAAACUGAGCGGAUAACCUCUCUAUGG
RNA 2: GGGAAUGGAUCCACAUCUACGAAUUCGUACCAUAGAGAGGUUAUCCGCUCGCACCGAGAUCGGAAGAGCACACGU

The target in the series is T1, EsCas13d, nuclease-dead. Kind of series: crRNA (strand 1, pre-loaded); Mg2+; 40 mM Tris-HCl pH 7.5, 150 mM NaCl, 6 mM MgCl2, 1 mM DTT, 0.1% Tween-20, 0.2 mg/ml BSA; 25 C; 10 min per concentration, then washed. The following applies: tags: His6-TwinStrep-SUMO cleaved; N-terminal SNAP kept (SNAP-Surface 488); label: 3' end held by stalled T7 RNA polymerase.
For the molecule B1, binding was characterised by a dissociation constant (Kd) of 7.1 ± 1 nM. Consider B2, for which the Kd was 40 ± 18 nM. B3 gave a Kd of 10.5 ± 0.8 nM. Consider B4, for which the affinity, expressed as Kd, was 11.4 ± 1.6 nM. The molecule B5 came in with a Kd of 9.2 ± 0.8 nM. Molecule B6 returned a Kd of 4.7 ± 0.5 nM.

For B7, binding was characterised by a dissociation constant (Kd) of 3.9 ± 0.6 nM. To B8 belongs 13.4 ± 1.5 nM; to B9, 10.5 ± 1.2 nM.

In turn, B10 came in with a Kd of 16.4 ± 2.4 nM.

B11 displayed a Kd of 6.5 ± 0.8 nM. The result for B12 reads 17.4 ± 2.6 nM. B13 gave a Kd of 13.5 ± 2.2 nM. The result for B14 reads 4.1 ± 0.4 nM; that for B15, 14 ± 3.3 nM; that for B16, 24.4 ± 2.8 nM. Regarding B17, the Kd worked out at 10.5 ± 1.8 nM. In turn, B18 gave a Kd of 7.6 ± 1.8 nM. In the case of B19, the Kd stood at 15 ± 5 nM.

Consider B20, for which the dissociation constant Kd was found to be 6.5 ± 1.2 nM. B21 came in with a Kd of 12.4 ± 2.5 nM. As to B22, the Kd turned out to be 6.2 ± 0.5 nM. For B23, the Kd is 9.9 ± 1.3 nM. Turning to B24, the Kd was found to be 9.7 ± 1.5 nM. In turn, B25 had a Kd of 71 ± 28 nM. For B26, the Kd turned out to be 6.2 ± 0.8 nM. In turn, B27 came in with a Kd of 8.5 ± 0.6 nM.

These data come from PMC10786891, “Massively parallel profiling of RNA-targeting CRISPR-Cas13d”.
